Results on six proteins are retold here after article PMC10991250, “Efficient synthesis 1,4-cyclohexanedicarboxaldehyde by an engineered alcohol oxidase” (Bioresources and Bioprocessing, 2022).

Substrate in data set [1]: OCC1CCC(CO)CC1
The experiment in a line: initial rate of HMCA formation by GC, Michaelis-Menten fit. It counts as biochemical, Pseudarthrobacter chlorophenolicus. The settings on record: 1-100 mM CHDM, air-saturated O2, 100 mM potassium phosphate pH 8.0, 30 °C, 5% DMSO, 0.1 g/L catalase. From the text:
initial rate of HMCA formation by GC, Michaelis-Menten fit on AcCO

Substrate in data set [2]: O=CC1CCC(CO)CC1
The experiment in a line: initial rate of CHDA formation by GC, Michaelis-Menten fit. In kind it is biochemical, Pseudarthrobacter chlorophenolicus. The settings on record: 1-100 mM HMCA, air-saturated O2, 100 mM potassium phosphate pH 8.0, 30 °C, 5% DMSO, 0.1 g/L catalase. From the text: initial rate of CHDA formation by GC, Michaelis-Menten fit on AcCO

B1: AcCO (Pseudarthrobacter chlorophenolicus A6) (protein)
chain: MHIDNIENLSDRGFDYVVIGGGSAGAAVAARLSEDPDVSVALVEAGPDDRNIPEILQLDRWMELLESGYDWDYPIEPQENGNSFMRHARAKVMGGCSSHNSCIAFWAPREDLDEWESKYGATGWNAANAWPLYKRLETNQDAGPDAPHHGDSGPVHLMNVPPADPSGVALLDACEEAGIPRARFNTGTTVVNGANFFQINRRGDGTRSSSSVSYIHPIIERDNFTLLTGLRARQLVFDADKRCTGVEVVDGAFGRTHRLTARHEVILSTGAIDSPKLLMLSGIGPAEHLAQHGIEVLVDSPGVGENLQDHPEGVVQFEAKQPMVQTSTQWWEIGIFTPTEDGLDRPDLMMHYGSVPFDMNTLRHGYPTTENGFSLTPNVTHARSRGTVRLRSRDFRDKPMVDPRYFTDPEGHDMRVMVAGIRKAREIAAQPAMSAWTGRELSPGVGAQTDEELQDYIRKTHNTVYHPVGTVRMGADDDGMSPLDARLRVKGVTGLRVADASVMPEHVTVNPNITVMMIGERCADLIKADYAGADALEEKELTTSFA
notes: codon-optimized synthetic gene in pET-28a(+) (BamHI/EcoRI), E. coli BL21(DE3), purified by AKTA; FAD-dependent
Regarding B1, in data set [1], the Michaelis constant (Km) (usually the substrate concentration at which the rate is half of its maximum) is on record as 15.30 ± 0.14 mM; the kcat (as a rule, the maximal rate divided by the concentration of active sites) turned out to be 0.00267 ± 0.000467 s⁻¹; the specificity constant (kcat/Km) (usually the second-order rate constant that governs catalysis at low substrate concentration) was 0.167 M⁻¹ s⁻¹. In addition, in data set [2], the Km was 26.81 ± 0.19 mM, the kcat worked out at 0.000717 ± 0.000217 s⁻¹ and the kcat/Km was determined as 0.0267 M⁻¹ s⁻¹.

B2: AcCO (Pseudarthrobacter chlorophenolicus A6; S101A) (protein)
chain: MHIDNIENLSDRGFDYVVIGGGSAGAAVAARLSEDPDVSVALVEAGPDDRNIPEILQLDRWMELLESGYDWDYPIEPQENGNSFMRHARAKVMGGCSSHNACIAFWAPREDLDEWESKYGATGWNAANAWPLYKRLETNQDAGPDAPHHGDSGPVHLMNVPPADPSGVALLDACEEAGIPRARFNTGTTVVNGANFFQINRRGDGTRSSSSVSYIHPIIERDNFTLLTGLRARQLVFDADKRCTGVEVVDGAFGRTHRLTARHEVILSTGAIDSPKLLMLSGIGPAEHLAQHGIEVLVDSPGVGENLQDHPEGVVQFEAKQPMVQTSTQWWEIGIFTPTEDGLDRPDLMMHYGSVPFDMNTLRHGYPTTENGFSLTPNVTHARSRGTVRLRSRDFRDKPMVDPRYFTDPEGHDMRVMVAGIRKAREIAAQPAMSAWTGRELSPGVGAQTDEELQDYIRKTHNTVYHPVGTVRMGADDDGMSPLDARLRVKGVTGLRVADASVMPEHVTVNPNITVMMIGERCADLIKADYAGADALEEKELTTSFA
notes: as for B1
For the protein B2, in data set [1], the Michaelis-Menten constant (Km) amounted to 13.45 ± 0.23 mM, the turnover number (kcat) was determined as 0.00617 ± 0.00107 s⁻¹ and the kcat/Km was 0.45 M⁻¹ s⁻¹. In data set [2], the Michaelis constant (Km) worked out at 20.42 ± 0.12 mM, the catalytic constant (kcat) was 0.00233 ± 0.000367 s⁻¹ and the kcat/Km worked out at 0.114 M⁻¹ s⁻¹.

B3: AcCO (Pseudarthrobacter chlorophenolicus A6; H351V) (protein)
chain: MHIDNIENLSDRGFDYVVIGGGSAGAAVAARLSEDPDVSVALVEAGPDDRNIPEILQLDRWMELLESGYDWDYPIEPQENGNSFMRHARAKVMGGCSSHNSCIAFWAPREDLDEWESKYGATGWNAANAWPLYKRLETNQDAGPDAPHHGDSGPVHLMNVPPADPSGVALLDACEEAGIPRARFNTGTTVVNGANFFQINRRGDGTRSSSSVSYIHPIIERDNFTLLTGLRARQLVFDADKRCTGVEVVDGAFGRTHRLTARHEVILSTGAIDSPKLLMLSGIGPAEHLAQHGIEVLVDSPGVGENLQDHPEGVVQFEAKQPMVQTSTQWWEIGIFTPTEDGLDRPDLMMVYGSVPFDMNTLRHGYPTTENGFSLTPNVTHARSRGTVRLRSRDFRDKPMVDPRYFTDPEGHDMRVMVAGIRKAREIAAQPAMSAWTGRELSPGVGAQTDEELQDYIRKTHNTVYHPVGTVRMGADDDGMSPLDARLRVKGVTGLRVADASVMPEHVTVNPNITVMMIGERCADLIKADYAGADALEEKELTTSFA
notes: as for B1
For the protein B3, in data set [1], the Michaelis constant (Km) is 13.36 ± 0.12 mM, the turnover number (kcat) was 0.00683 ± 0.00045 s⁻¹ and the catalytic efficiency (kcat/Km) is 0.517 M⁻¹ s⁻¹. Further, in data set [2], the Michaelis constant (Km) is 16.24 ± 0.11 mM, the turnover number (kcat) turned out to be 0.004 ± 0.000367 s⁻¹ and the catalytic efficiency (kcat/Km) amounted to 0.247 M⁻¹ s⁻¹.

B4: AcCO (Pseudarthrobacter chlorophenolicus A6; H351V/N378S/S101A) (protein)
chain: MHIDNIENLSDRGFDYVVIGGGSAGAAVAARLSEDPDVSVALVEAGPDDRNIPEILQLDRWMELLESGYDWDYPIEPQENGNSFMRHARAKVMGGCSSHNACIAFWAPREDLDEWESKYGATGWNAANAWPLYKRLETNQDAGPDAPHHGDSGPVHLMNVPPADPSGVALLDACEEAGIPRARFNTGTTVVNGANFFQINRRGDGTRSSSSVSYIHPIIERDNFTLLTGLRARQLVFDADKRCTGVEVVDGAFGRTHRLTARHEVILSTGAIDSPKLLMLSGIGPAEHLAQHGIEVLVDSPGVGENLQDHPEGVVQFEAKQPMVQTSTQWWEIGIFTPTEDGLDRPDLMMVYGSVPFDMNTLRHGYPTTENGFSLTPSVTHARSRGTVRLRSRDFRDKPMVDPRYFTDPEGHDMRVMVAGIRKAREIAAQPAMSAWTGRELSPGVGAQTDEELQDYIRKTHNTVYHPVGTVRMGADDDGMSPLDARLRVKGVTGLRVADASVMPEHVTVNPNITVMMIGERCADLIKADYAGADALEEKELTTSFA
notes: as for B1
In the case of B4, in data set [1], the Michaelis-Menten constant (Km) turned out to be 7.63 ± 0.72 mM, the turnover number (kcat) was 0.0312 ± 0.002 s⁻¹ and the kcat/Km came out at 4 M⁻¹ s⁻¹. In data set [2], the Km came out at 6.81 ± 0.13 mM, the turnover number (kcat) came to 0.00883 ± 0.002 s⁻¹ and the kcat/Km turned out to be 1.3 M⁻¹ s⁻¹.

B5: AcCO (Pseudarthrobacter chlorophenolicus A6; H351V/N378S/Q329N/S101A) (protein)
chain: MHIDNIENLSDRGFDYVVIGGGSAGAAVAARLSEDPDVSVALVEAGPDDRNIPEILQLDRWMELLESGYDWDYPIEPQENGNSFMRHARAKVMGGCSSHNACIAFWAPREDLDEWESKYGATGWNAANAWPLYKRLETNQDAGPDAPHHGDSGPVHLMNVPPADPSGVALLDACEEAGIPRARFNTGTTVVNGANFFQINRRGDGTRSSSSVSYIHPIIERDNFTLLTGLRARQLVFDADKRCTGVEVVDGAFGRTHRLTARHEVILSTGAIDSPKLLMLSGIGPAEHLAQHGIEVLVDSPGVGENLQDHPEGVVQFEAKQPMVQTSTNWWEIGIFTPTEDGLDRPDLMMVYGSVPFDMNTLRHGYPTTENGFSLTPSVTHARSRGTVRLRSRDFRDKPMVDPRYFTDPEGHDMRVMVAGIRKAREIAAQPAMSAWTGRELSPGVGAQTDEELQDYIRKTHNTVYHPVGTVRMGADDDGMSPLDARLRVKGVTGLRVADASVMPEHVTVNPNITVMMIGERCADLIKADYAGADALEEKELTTSFA
notes: as for B1
As to B5, in data set [1], the Km is 1.12 ± 0.19 mM, the kcat stood at 0.0367 ± 0.00717 s⁻¹ and the catalytic efficiency (kcat/Km) was determined as 32.7 M⁻¹ s⁻¹. For the same protein, in data set [2], the Km was 5.24 ± 0.28 mM, the catalytic constant (kcat) is 0.0157 ± 0.000717 s⁻¹ and the specificity constant (kcat/Km) came out at 3 M⁻¹ s⁻¹.

B6: AcCO (Pseudarthrobacter chlorophenolicus A6; H351V/S101A) (protein)
chain: MHIDNIENLSDRGFDYVVIGGGSAGAAVAARLSEDPDVSVALVEAGPDDRNIPEILQLDRWMELLESGYDWDYPIEPQENGNSFMRHARAKVMGGCSSHNACIAFWAPREDLDEWESKYGATGWNAANAWPLYKRLETNQDAGPDAPHHGDSGPVHLMNVPPADPSGVALLDACEEAGIPRARFNTGTTVVNGANFFQINRRGDGTRSSSSVSYIHPIIERDNFTLLTGLRARQLVFDADKRCTGVEVVDGAFGRTHRLTARHEVILSTGAIDSPKLLMLSGIGPAEHLAQHGIEVLVDSPGVGENLQDHPEGVVQFEAKQPMVQTSTQWWEIGIFTPTEDGLDRPDLMMVYGSVPFDMNTLRHGYPTTENGFSLTPNVTHARSRGTVRLRSRDFRDKPMVDPRYFTDPEGHDMRVMVAGIRKAREIAAQPAMSAWTGRELSPGVGAQTDEELQDYIRKTHNTVYHPVGTVRMGADDDGMSPLDARLRVKGVTGLRVADASVMPEHVTVNPNITVMMIGERCADLIKADYAGADALEEKELTTSFA
notes: as for B1
With B6, in data set [1], the Km stood at 10.21 ± 0.46 mM, the catalytic constant (kcat) is 0.02183 ± 0.000183 s⁻¹ and the specificity constant (kcat/Km) came out at 2.17 M⁻¹ s⁻¹. In addition, in data set [2], the Michaelis-Menten constant (Km) was 14.44 ± 0.46 mM, the catalytic constant (kcat) is 0.00683 ± 0.000233 s⁻¹ and the specificity constant (kcat/Km) came out at 0.473 M⁻¹ s⁻¹.
